In US9217013B2, “Treatment of amyloidoses using myelin basic protein and fragments thereof” (The Research Foundation for the State University of New York, priority 2008, dated 2015):
“Also recorded” adds a separate entry of the source.

Legend:
[1] = molecular target: Aβ40WT (Homo sapiens, UniProt P05067); test: Co-immunoprecipitation of MBP with Aβ40WT; format: binding; settings: purified MBP
Description: (§1) AP peptides were resuspended in Me2SO to 2.5 mM and used at 10.8 μM. MBP was used at 1.56 μM. Proteins were combined in 250 μl of incubation buffer (PBS, 0.05% Tween 20, and 1% BSA). Anti-MBP mAb 382 was added to each sample mixture and incubated for 1 h at 4° C. with rocking. After incubation, 20 μl of washed GammaBind protein G-Sepharose beads (Amersham Biosciences) were added to each mixture, followed by incubation for an additional 1 h at 4° C. with rocking. Beads were separated by centrifugation at 8000×g for 2 min. Supernatants were removed, and beads were washed with 1 ml of incubation buffer. Separation and washing were repeated three times. A final wash was performed in PBS and 0.05% Tween 20 to remove excess BSA. Centrifuged beads were combined with 25 μl of reducing SDS-PAGE loading buffer and heated as described above. 10 μl of each sample/loading buffer mixture was loaded onto 10-20% Tricine gels (Invitrogen) and electrophoresed at 125 V for 35 min. Immunoblotting was carried out as described above using either biotinylated anti-MBP mAb 384 or biotinylated anti-Aβ mAb 3D6 as primary antibody. Experiments were performed in triplicate.

[2] = molecular target: wild-type Aβ40 (Aβ40WT) (Homo sapiens, UniProt P05067); test: Surface plasmon resonance binding to wild-type Aβ40; settings: compared with CAA mutant Aβ40
Description: All runs were performed on a Biacore 2000 instrument using 10 mM HEPES (pH 7.4), 150 mM NaCl, 3 mM EDTA, and 0.005% (v/v) Tween 20 as running buffer and diluent. Streptavidiri was conjugated to the surface of three flow cells of a CM5 chip at 10 μl/min using amine coupling chemistry to a final average response level of 1890.2 response units. N-terminally biotinylated Aβ peptides were resuspended in Me2SO to 2.5 mM and serially diluted to 13 nM immediately before application. Biotinylated Aβ40WT and Aβ40DI were bound to individual flow cells at 10 μl/min to achieve an average relative response level of 157.1 response units, leaving flow cell 1 as reference. […] The resultant Rmax of these surfaces was ˜700 response units with MBP as analyte. Purified MBP was passed over all four flow cells at 5, 10, 25, 50, and 100 nM at a flow rate of 30 μl/min for kinetic measurements. […] Surfaces were regenerated with 0.2 M glycine (pH 2.0) and 150 mM NaCl between runs. The resulting sensorgrams were analyzed by BIAanalysis software. Triplicate concentration series were used for each surface.

[3] = molecular target: T1, Aβ40DI (Homo sapiens, UniProt P05067, D694N/E693Q); test: Quantitative immunoblot analysis of Aβ40DI fibril assembly; format: biochemical; settings: 12.5 μM Aβ40DI, 1.56 μM MBP, up to 12 h
Description: Aβ40DI (12.5 μM) was incubated in the absence (A and D) or presence (C and F) of 1.56 […] purified MBP. Bovine a-lactalbumin (Lalb. 1.56 μM) was included as a negative control (B and E). Aliquots were removed at specific time points and analyzed by quantitative immunoblot analysis using anti-Aβ mAb 6E10. […] Data represent the means±S.D. of three separate experiments.
Briefly, samples were heated at 90° C. for 5 min in reducing SDS-PAGE loading buffer, loaded onto gels, and electrophoresed. Gels were transferred to Hybond ECL nitrocellulose membranes (Amersham Biosciences) at 50 V overnight at 4° C. Membranes were blocked in PBS containing 5% milk or bovine serum albumin (BSA; used with biotinylated primary antibodies) at room temperature for 1 h and washed 3×10 min with PBS and 0.05% Tween 20. Membranes were incubated with primary antibodies for 1 h and washed as described above. Next, the membranes were incubated with either horseradish peroxidase-conjugated sheep anti-mouse IgG or horseradish peroxidase-conjugated streptavidin (both from Amersham Biosciences) for 1 h and washed. Detection was accomplished using ECL Western blotting substrate (Pierce), and images were captured either on film or using a VersaDoc 3000 imaging system (Bio-Rad) and quantitated with the manufacturer's Quantity One software.

[4] = molecular target: T1, Aβ40DI; test: Affinity chromatography of human brain homogenate on Aβ40DI column; format: binding
Description: For some embodiments of the invention, it may be advantageous to work with purified isolates of mutant and wild-type forms of Aβ. The affinity chromatography method used in the development of embodiments of the instant invention to obtain such isolates is exemplary: To prepare affinity resins, biotinylated wild-type Aβ40 peptide (Aβ40WT) and Aβ40DI were each redissolved in 20 mM NaHCO3 buffer (pH 8.5) and applied to ImmunoPure immobilized streptavidin beads (Pierce) following the manufacturer's instructions. Immobilized ligands were cross-linked with 2 mM bis(sulfosuccinimidyl) suberate (Pierce) for 30 min with rocking at room temperature in 20 mM NaHCO3 (pH 8.5). Crosslinking reactions were stopped by the addition of 1 M Tris-HCl (pH 7.4) to a final concentration of 20 mM. Homogenates of normal human brain frontal cortex (which may obtained as biopsies) were prepared in Tris-buffered saline (50 mM Tris-HCl and 200 mM NaCl (pH 7.4)) containing complete protease inhibitor cocktail (Roche). Homogenates were centrifuged at 12,000×g for 30 min, and supernatants were loaded onto Tris-buffered saline-equilibrated affinity columns (0.8×4 cm) under gravity flow. […] Fractions were analyzed by SDS-PAGE on 10-20% Tris/glycine gradient gels. […]

[5] = molecular target: Aβ42WT (Homo sapiens, UniProt P05067); test: Co-immunoprecipitation of MBP with Aβ42WT; format: binding
Description: as §1

B1: myelin basic protein (protein)
chain: ASQKRPSQRHGSKYLATASTMDHARHGFLPRHRDTGILDSIGRFFGGDRGAPKRGSGKDSHHPARTAHYGSLPQKSHGRTQDENPVVHFFKNIVTPRTPPPSQGKGRGLSLSRFSWGAEGQRPGFGYGGRASDYKSAHKGFKGVDAQGTLSKIFKLGGRDSRSGSPMARR
notes: myelin basic protein, major form about 18.5 Kd (170 residues); purified protein
[1]
  binding by immunoprecipitation: bound
[2]
  binding to wild-type Aβ40: Significantly weaker binding
[3]
  accumulation of high molecular mass species of Aβ40DI: allows no high molecular mass species of Aβ40DI to accumulate
[4]
  capture on Aβ40DI affinity column: captured; also recorded: preferentially binds
[5]
  interaction in co-immunoprecipitation: interacts
